Reference: article PMC6969166, “The molecular basis of pyrazinamide activity on Mycobacterium tuberculosis PanD” (Nature Communications, 2020)

Target: the molecule itself
Assay: crystal structure

B1: Mycobacterium tuberculosis PanD (aspartate decarboxylase), wild type, processed active enzyme (enzyme)
chain 1: MLRTMLKSKIHRATVTCADLHYVG
chain 2: SVTIDADLMDAADLLEGEQVTIVDIDNGARLVTYAITGERGSGVIGINGAAAHLVHPGDLVILIAYATMDDARARTYQPRIVFVDAYNKPIDMGHDPAFVPENAGELLDPRLGVG
notes: also called Mtb PanD; Rv3601c; copies: 4 + 4
- stoichiometry N: 4
